{
  "source": "patent US20200182883A1",
  "molecular_target": "HIV-1 IIIB p24 recombinant protein (HIV-1 IIIB)",
  "assay": "SPR, mAb immobilized on a Protein A chip, 0-200 nM p24, room temperature",
  "data": [
    {"binder": "N60P55 (antibody, V domains shown) VH: QVQLRESGPGLVKPSATLSLTCIVSGGSMSGYYWSWIRQPPGKGLEWIGHIDNNERTISSPSLNSRVTVSPDTSRNRFTLTLSSVTAADTATYYCARHVVYGGLDIWGQGTLVTVSS VL: EIVLTQSPGTLSLSPGERASLSCRASDIVSINYFAWYQQKPGQAPRLLISGASVRATGIPDRFSGSGSGTDFTLTINRLEPEDVAVYYCQQHGSSPTFGQGTKVEIK", "values": [
      {"measurement": "Kd", "value": 0.0917, "unit": "nM"},
      {"measurement": "koff", "value": "6.55e-05", "unit": "s⁻¹"},
      {"measurement": "kon", "value": 715000, "unit": "M⁻¹ s⁻¹"}
    ]}
  ]
}
